This passage reports response results from publication PMC6477152 (2019).

The labels stand for the following.
B1: FIP200ΔN1115:Luciferase [human] / GST:SINTBADaa5-85 [human] (parent complex)
chain 1: ENYQVGLAELRTLMTIEKDQCISELISRHEEESNILKAELNKVTSLHNQAFEIEKNLKEQIIELQSKLDSELSALERQKDEKITQQEEKYEAIIQNLEKDRQKLVSSQEQDREQLIQKLNCEKDEAIQTALKEFKLEREVVEKELLEKVKHLENQIAKSPAIDSTRGDSSSLVAELQEKLQEEKAKFLEQLEEQEKRKNEEMQNVRTSLIAEQQTNFNTVLTREKMRKENIINDLSDKLKSTMQQQERDKDLIESLSEDRARLLEEKKKLEEEVSKLRSSSFVPSPYVATAPELYGACAPELPGESDRSAVETADEGRVDSAMETSMMSVQENIHMLSEEKQRIMLLERTLQLKEEENKRLNQRLMSQSMSSVSSRHSEKIAIRDFQVGDLVLIILDERHDNYVLFTVSPTLYFLHSESLPALDLKPGEGASGASRRPWVLGKVMEKEYCQAKKAQNRFKVPLGTKFYRVKAVSWNKKV
chain 2: FEDDISILTQEALGPSEVWLDSPGDPSLGGDMCSASHFALITAYGDIKERLGGLERENATLRRRLKVYEIKYPLISDFGEE
B2: FIP200ΔN1115:Luciferase [human] / GST:NAP1aa5–75 [human] (parent complex)
chain 1: B1 chain 1
chain 2: VEDDICILNHEKAHKRDTVTPVSIYSGDESVASHFALVTAYEDIKKRLKDSEKENSLLKKRIRFLEEKLIA
B3: FIP200ΔN1115:Luciferase [human] / GST:NDP52 [human] (parent complex)
chain 1: B1 chain 1
chain 2: MEETIKDPPTSAVLLDHCHFSQVIFNSVEKFYIPGGDVTCHYTFTQHFIPRRKDWIGIFRVGWKTTREYYTFMWVTLPIDLNNKSAKQQEVQFKAYYLPKDDEYYQFCYVDEDGVVRGASIPFQFRPENEEDILVVTTQGEVEEIEQHNKELCKENQELKDSCISLQKQNSDMQAELQKKQEELETLQSINKKLELKVKEQKDYWETELLQLKEQNQKMSSENEKMGIRVDQLQAQLSTQEKEMEKLVQGDQDKTEQLEQLKKENDHLFLSLTEQRKDQKKLEQTVEQMKQNETTAMKKQQELMDENFDLSKRLSENEIICNALQRQKERLEGENDLLKRENSRLLSYMGLDFNSLPYQVPTSDEGGARQNPGLAYGNPYSGIQESSSPSPLSIKKCPICKADDICDHTLEQQQMQPLCFNCPICDKIFPATEKQIFEDHVFCHSL

The first test covers variants of B1. Description: LUMIER assay; HEK293ET cell lysates; bacterially expressed GST bait; read off a plot.
Turning to chain 1 L351A, the response is around 110 fold binding.

In the case of chain 1 Q352A, the response was around 210 fold binding.

Take chain 1 A452S: the response is around 59 fold binding.

In the case of chain 1 E348A, the response is around 200 fold binding.

On to chain 1 L347A, for which the response is around 99 fold binding.

Consider chain 1 L353A, for which the response was around 170 fold binding.

For chain 1 R349A, the response is around 170 fold binding.

For the variant chain 1 T350A, the response is around 180 fold binding.

Variants of B1 are the subject of a further test. Description: LUMIER assay; HEK293ET cell lysates; read off a plot.
As to chain 1 A452S, the response was around 280 fold binding.

chain 1 F459S: the response is around 6.2 fold binding.

For chain 1 N457S, the response was around 7.8 fold binding.

chain 1 V461S: the response was around 6.4 fold binding.

The next test covers variants of B2. Described as above.
In the case of chain 1 N457S, the response is around 1.4 fold binding.

On to chain 1 A452S, for which the response is around 12 fold binding.

chain 1 V461S: the response is around 1.7 fold binding.

chain 1 F459S: the response is around 1.4 fold binding.

The variants in the next test derive from B3. Nature of the test: LUMIER assay; HEK293ET cell lysates; bacterially expressed GST bait; read off a plot.
As for chain 1 E348A, the response was around 49 fold binding.

With chain 1 R349A, the response is around 33 fold binding.

For the variant chain 1 N457S, the response was around 15 fold binding.

On to chain 1 F459S, for which the response was around 52 fold binding.

For the variant chain 1 L347A, the response is around 42 fold binding.

Turning to chain 1 V461S, the response was around 50 fold binding.

chain 1 A452S: the response was around 22 fold binding.

On to chain 1 L353A, for which the response was around 32 fold binding.

As to chain 1 L351A, the response is around 38 fold binding.

Take chain 1 T350A: the response was around 51 fold binding.

Take chain 1 Q352A: the response is around 44 fold binding.
